± gives the standard deviation of the averaged measurements.
test system: ATP; assay: switch fluorescence ratio, 500 uM ATP over buffer (Cy3 cluster intensity, sum of 5 cycles each) (fold (ratio)); higher = stronger signal-on switching upon ATP binding; sequences stand for … in TCGTCGGCAGCGTCAGATGTGTATAAGAGACAGTTTTTTTTTTTTTTTTTTTTTTTTT…TC; settings: aptamer strand: ATP DNA aptamer (quencher-CACCTGGGGGAGTATTGCGGAGGAAGG + anchor), 100 nM annealed; ATP concentration: 500 uM
Outline: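 Clusters carrying Cy3-labelled switching strands on a modified Illumina MiSeq flow-cell were annealed to 100 nM quencher-labelled ATP aptamer and imaged in selection buffer. They were imaged again after 15 min with 500 uM ATP at 22 °C, over five buffer/ATP cycles with NaOH stripping and re-annealing in between. For each cluster, the fluorescence ratio is the summed Cy3 intensity of the target cycles divided by that of the buffer cycles, averaged per switch-domain sequence. Clusters outside 100-1000 RFU were left out.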
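Further: ATP exposure 15 min at 22 °C before imaging.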

Sequence | switch fluorescence ratio
ATTTGTTAGA | 1.03 ± 0.021
TTTGGGAAGC | 1.02 ± 0.033
ATTTTGTATG | 0.976 ± 0.026
GCAGGACATA | 1.06 ± 0.027
GTGTTGGCTT | 0.995 ± 0.033
TTTCCGCGGA | 0.97 ± 0.024
TCCCAAAATG | 1.01 ± 0.039
GTAAGGGATT | 1.025 ± 0.0068
TAAATATGGG | 0.999 ± 0.034
ATGGGTTCAG | 0.969 ± 0.0045
ATGGTGTAGG | 1.01 ± 0.012
AAACCTGGGT | 1.03 ± 0.025
AGTTAACGGT | 1.18 ± 0.19
TGGTATGTGA | 1.01 ± 0.032
TTTGGGAGCA | 0.9882 ± 0.0022
GATACATGTG | 1.048 ± 0.0086
AAGTCTGGGG | 1.01 ± 0.027
GTATTTGGAG | 1.0226 ± 0.00041
CCGATACGGT | 1.08 ± 0.034
CAGGATGCGA | 1.05 ± 0.016
GGGGTTCCTT | 1 ± 0.034
ATATATTCC | 1.1 ± 0.019
GGGGGATTTA | 0.992 ± 0.022

Sequence | switch fluorescence ratio
TTAAAGATAT | 1.23 ± 0.32
GGTGGGTGGT | 0.99 ± 0.036
GGTGGGTGTG | 1 ± 0.036
GTCAGAGCTA | 1.01 ± 0.025
TGGGTGGGTC | 1.05 ± 0.069
ACCTAAAATA | 1.07 ± 0.085
TTGGGGAAAA | 1.04 ± 0.054
ACCCTCAAAA | 1.31 ± 0.031
TATTTAATCA | 1.008 ± 0.0097
CATTGAGGGT | 0.968 ± 0.052
CATCACATGT | 1 ± 0.018
TTATGGCTTT | 0.985 ± 0.018
GCTGAGCGGA | 0.995 ± 0.035
AGGGTTATCG | 1.02 ± 0.018
CAGTTGCGAG | 0.983 ± 0.042
CGAAATGCTG | 1.09 ± 0.016
TTTAAGTACG | 1.21 ± 0.048
TAATTCATCG | 0.97196 ± 0.00069
GGGGGTCATT | 0.9511 ± 0.0024
GGGGGATTAC | 1.06 ± 0.083
AGGGGAAAGC | 1.01 ± 0.027
TTATTTCGTG | 0.998 ± 0.03
TTGTAATGAT | 0.988 ± 0.027

Sequence | switch fluorescence ratio
CGTTTTGATT | 0.997 ± 0.013
GAGATTGCAG | 0.974 ± 0.069
GGGTATTGCA | 0.996 ± 0.018
TGAGTGGGGT | 1.02 ± 0.031
TTCGGGGTTG | 0.96 ± 0.015
TGTTGTGTAG | 0.977 ± 0.021
AAGAGTGTGG | 1.02 ± 0.058
GCATAGCAAT | 1.054 ± 0.003
TCTTAGTTGT | 0.988 ± 0.024
TTTGGACTGT | 0.988 ± 0.019
GTTAGCCGCT | 1.03 ± 0.014
ACTCATTTGG | 1.001 ± 0.0087
TAAAGGAAAG | 1.02 ± 0.03
GCATTAATGG | 1.04 ± 0.051
CAATAGTCAA | 1.05 ± 0.013
GGGCAAGGGG | 1.02 ± 0.028
GGGTTGGGTC | 0.996 ± 0.029
TATTGATAGC | 1.014 ± 0.0083
GAGGCATTGT | 1.05 ± 0.017
AACCTTGACG | 1.07 ± 0.047
AGATGAGTGT | 1 ± 0.02
AGGGGGCAAA | 1.02 ± 0.045
GAAGCGCCGG | 1.01 ± 0.028

Sequence | switch fluorescence ratio
GCCAGATAGG | 0.9562 ± 0.0088
AGAGAGTTAT | 1.02 ± 0.011
GGGTTAGCTT | 0.98 ± 0.031
GGGTGGATTG | 0.983 ± 0.039
TTTCCACAT | 0.9719 ± 0.0091
CTGGGGGTGT | 1.05 ± 0.04
AGGGGGGCTG | 0.975 ± 0.045
GAGGGGAGGA | 1.04 ± 0.014
CTGGAGGGA | 1 ± 0.07
CAGGATTAAA | 0.959 ± 0.029
CGGTTAAAGC | 0.94 ± 0.014
GCATTATTAA | 1.01 ± 0.032
TACGTACGTT | 1.41 ± 0.062
GTCGTGTGGT | 0.99 ± 0.045
TGTTTAAAAT | 1.02 ± 0.046
TTTTGAAGGG | 1 ± 0.021
CGAAAGGGAC | 1.033 ± 0.0092
GAAGGGCATT | 0.9963 ± 0.0015
AAAAGTTGTA | 1.01 ± 0.027
ATCCGTGGTT | 1.01 ± 0.047
GCCTTGATAG | 0.981 ± 0.0086
TAGGCGTGCT | 0.987 ± 0.013
AGGTAATAGC | 1.05 ± 0.0078

Sequence | switch fluorescence ratio
AAGAGGGCTT | 0.994 ± 0.016
TTTAGGTGCA | 1.16 ± 0.14
CGCCCAAAGG | 1.13 ± 0.11
TTTTTGTGAT | 1.02 ± 0.032
CACGCTTCCG | 1.07 ± 0.047
ACCCCTTGAT | 1.04 ± 0.023
TTGGATGCGG | 1.0022 ± 0.00011
GAGAAATTCC | 1.07 ± 0.021
GGGAGAATTT | 1.29 ± 0.43
TCGGAAGTAT | 0.9629 ± 0.0083
TAATTTGTGC | 1.01 ± 0.044
CACTGGGGGC | 1.02 ± 0.036
ATTTGAAGCG | 0.998 ± 0.024
AGCGGGGGCT | 0.997 ± 0.045
GTGGTCGGTA | 0.952 ± 0.084
ATTAGTCTGC | 0.996 ± 0.033
TCCTCAGGTG | 4.07 ± 0.33
AATAGGGGTG | 1.01 ± 0.043
CTGTGGGTAG | 1.03 ± 0.021
GGCAGGCCAT | 1.059 ± 0.0074
GGAATGTCGG | 0.962 ± 0.051
TTTCCTGAGG | 0.991 ± 0.016
TGGTTGGCGG | 1.03 ± 0.062

Sequence | switch fluorescence ratio
GCGGGGAATT | 1.02 ± 0.026
TTTTACATTT | 1 ± 0.057
GAGGGGATCG | 0.967 ± 0.015
TCTGTGTTAT | 1 ± 0.026
TTAGGCGAGG | 1.08 ± 0.16
GCCCATTTTT | 0.978 ± 0.011
ATTGTGTCAC | 1 ± 0.028
TGGGATATA | 1.01 ± 0.056
TCCCGTTATT | 1.01 ± 0.025
CAGTCGTCCT | 1.028 ± 0.0019
TTGAGGGTGG | 1.0305 ± 0.0005
CAAGGCTTGA | 0.974 ± 0.022
TTACAAGGAC | 1.049 ± 0.0089
CGTAGCTTTG | 1.086 ± 0.0028
CAGGTAAGGC | 1.04 ± 0.033
TGATTAGTCG | 1.01 ± 0.023
GGGCCCGTAT | 1.014 ± 0.0091
TAGCGGGCTT | 0.983 ± 0.025
GGCAATTATG | 1.02 ± 0.025
GGGCCGGCTG | 1.01 ± 0.036
TTGCGGGTTT | 1.29 ± 0.38
CGATTGGGAC | 1.01 ± 0.02
AAAATTTATG | 1.01 ± 0.038

Sequence | switch fluorescence ratio
TCAAGACGCA | 1.068 ± 0.0035
TATATTATGA | 0.999 ± 0.023
GCTTGGATCC | 0.966 ± 0.022
ATTATTTGGT | 1.01 ± 0.014
GAGAGTGGTT | 0.998 ± 0.012
TGGTTGAGGT | 0.963 ± 0.028
ACAAGTGATC | 1.076 ± 0.0017
TGACGTAAGG | 0.994 ± 0.026
TTCGATTTGC | 1.01 ± 0.022
ACTGTGGGGA | 1.01 ± 0.013
CTTGGTTAGT | 1.03 ± 0.056
ATGGAGTTG | 0.994 ± 0.024
CGGTGGCGGG | 1.004 ± 0.0095
CAGTAGTTGC | 1.091 ± 0.0086
CCAGCTGCGG | 1.01 ± 0.022
CGTGTACTTA | 1.03 ± 0.01
CAATCTTGGG | 0.97144 ± 0.00089
AGAGGCGTTA | 1.01 ± 0.025
ATTAGCTTCC | 3 ± 0.33
